According to patent US20210253701A1 (Regeneron, published 2021):

Key:
[1] = target: T1, human CD3 (cell surface-expressed) (human, UniProt P07766 23-207; P04234 22-171); experiment: FACS, Jurkat cells
T1 construct: CD3 as carried by Jurkat cells or human T cells (part of the TCR complex, which also holds CD3-gamma and zeta); also called human CD3 expressing Jurkat cells; JURKAT

[2] = target: T1, human CD3 (cell surface-expressed); experiment: cell-based or functional assay
[3] = target: human MUC16 on OVCAR3 cells (human); experiment: cell-based or functional assay
[4] = target: T2, human MUC16 on OVCAR3 cells (human); experiment: FACS, OVCAR3 (MUC16+) cells
T2 construct: Endogenous MUC16 of the OVCAR3 cell line; also called Mucin 16

[5] = target: T3, soluble heterodimeric hCD3ε/δ.mFc protein (human); experiment: SPR 37 C, antigen-capture format
T3 construct: also called soluble human CD3; human CD3 heterodimeric protein
T3 sequence (P07766 23-126, stated change not applied, chain 1 of 2): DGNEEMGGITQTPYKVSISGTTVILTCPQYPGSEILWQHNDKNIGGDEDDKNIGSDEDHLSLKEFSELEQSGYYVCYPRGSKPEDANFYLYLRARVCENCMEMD
T3 sequence (P04234 22-105, stated change not applied, chain 2 of 2, further chain): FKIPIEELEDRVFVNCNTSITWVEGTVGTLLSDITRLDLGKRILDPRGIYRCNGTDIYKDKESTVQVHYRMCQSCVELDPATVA

T1 sequence (P07766 23-207 limits assumed, chain 1 of 2): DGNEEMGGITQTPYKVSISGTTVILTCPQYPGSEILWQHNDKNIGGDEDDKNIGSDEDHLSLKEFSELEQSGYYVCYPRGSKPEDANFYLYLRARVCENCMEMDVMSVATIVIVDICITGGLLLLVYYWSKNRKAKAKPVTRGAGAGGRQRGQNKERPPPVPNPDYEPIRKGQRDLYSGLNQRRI
T1 sequence (P04234 22-171 limits assumed, chain 2 of 2): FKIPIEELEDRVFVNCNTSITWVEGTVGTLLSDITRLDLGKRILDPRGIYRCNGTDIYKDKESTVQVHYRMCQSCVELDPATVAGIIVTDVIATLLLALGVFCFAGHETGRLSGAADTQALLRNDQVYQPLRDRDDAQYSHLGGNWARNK

Binder | EC50 [1] [nM] | T cell activation EC50 [2] [nM] | OVCAR3 cell depletion EC50 [3] [nM] | EC50 [4] [nM] | Kd [5] [nM]
BSMUC16/CD3-001 (bispecific antibody) chain 1: QVQLVESGGGLVKPGGSLRLSCAASGFTFSNYYMSWVRQAPGKGLEWISYISGRGSTIFYADSVKGRITISRDNAKNSLFLQMNSLRAEDTAVYFCVKDRGGYSPYWGQGTLVTVSS chain 2: EVQLVESGGGLVQPGRSLRLSCAASGFTFDDYSMHWVRQAPGKGLEWVSGISWNSGSKGYADSVKGRFTISRDNAKNSLYLQMNSLRAEDTALYYCAKYGSGYGKFYHYGLDVWGQGTTVTVSS chain 3: not shown | 3.21 | 0.00588 | 0.0224 | 1.2 | –
BSPSMA/CD3-004 (bispecific antibody) chain 1: QVQLVESGGGVVQPGRSLRLSCAASGFTFSSYGMHWVRQAPGKGLEWVAVISYAGNNKYYADSVKGRFTVSRDNSKKTLYLQMNSLRSEDTAVYYCAKDSYYDFLTDPDVLDIWGQGTMVTVSS chain 2: EVQLVESGGGLVQPGRSLRLSCAASGFTFDDYSMHWVRQAPGKGLEWVSGISWNSGSIGYADSVKGRFTISRDNAKNSLYLQMNSLRAEDTALYYCAKDGSGYGKFYYYGMDVWGQGTTVTVSS chain 3: DIQMTQSPSSLSASVGDSVTITCRASQSINNYLNWYQQKPGKAPKLLIYTASSLLSGVPSRFSGSGSGTDFTLTISGLHPEDFATYFCQQSFSTPPITFGQGTRLDIK | – | – | – | – | > 500
BSMUC16/CD3-002 (bispecific antibody) chain 1: QVQLVESGGGLVKPGGSLRLSCAASGFTFSNYYMSWVRQAPGKGLEWISYISGRGSTIFYADSVKGRITISRDNAKNSLFLQMNSLRAEDTAVYFCVKDRGGYSPYWGQGTLVTVSS chain 2: EVQLVESGGGLVQPGRSLRLSCAASGFTFDDYSMHWVRQAPGKGLEWVSGISWNSGSIGYADSVKGRFTISRDNAKNSLYLQMNSLRAEDTALYYCAKDGSGYGKFYYYGMDVWGQGTTVTVSS chain 3: not shown | – | 0.0101 | 0.0306 | 2.69 | –

Now from value to binder:

EC50 [1] [nM] | T cell activation EC50 [2] [nM] | OVCAR3 cell depletion EC50 [3] [nM] | EC50 [4] [nM] | Kd [5] [nM] | Binder
– | – | – | – | > 500 | BSPSMA/CD3-1800 (bispecific antibody) chain 1: QVQLVESGGGVVQPGRSLRLSCAASGFTFSSYGMHWVRQAPGKGLEWVAVISYAGNNKYYADSVKGRFTVSRDNSKKTLYLQMNSLRSEDTAVYYCAKDSYYDFLTDPDVLDIWGQGTMVTVSS chain 2: EVQLVESGGGLVQPGRSLRLSCAASGFTFDDYSMHWVRQAPGKGLEWVSGISWNSGSIGYADSVKGRFTISRDNAKNSLYLQMNSLRAEDTALYYCAKDGSGYGKFYYYGLDVWGQGTTVTVSS chain 3: DIQMTQSPSSLSASVGDSVTITCRASQSINNYLNWYQQKPGKAPKLLIYTASSLLSGVPSRFSGSGSGTDFTLTISGLHPEDFATYFCQQSFSTPPITFGQGTRLDIK
– | – | – | – | > 500 | BSPSMA/CD3-400 (bispecific antibody) chain 1: QVQLVESGGGVVQPGRSLRLSCAASGFTFSSYGMHWVRQAPGKGLEWVAVISYAGNNKYYADSVKGRFTVSRDNSKKTLYLQMNSLRSEDTAVYYCAKDSYYDFLTDPDVLDIWGQGTMVTVSS chain 2: EVQLVESGGGLVQPGRSLRLSCAASGFTFDDYAMHWVRQAPGKGLEWVSGISWNSGSIGYADSVKGRFTISRDNAKNSLYLQMNSLRAEDTALYYCAKDGSGYGKFYYYGMDVWGQGTTVTVSS chain 3: DIQMTQSPSSLSASVGDSVTITCRASQSINNYLNWYQQKPGKAPKLLIYTASSLLSGVPSRFSGSGSGTDFTLTISGLHPEDFATYFCQQSFSTPPITFGQGTRLDIK
